From patent US20260049138A1 (Chugai, published 2026)
Numbering of substitutions follows the chain as printed. Numbers in names are those of the source.

B1: CE115HA000 D73T one-arm antibody (antibody, human IgG1, kappa, L234A L235A, N297A, name in Kabat numbering)
heavy: QVQLVESGGGVVQPGRSLRLSCAASGFTFSNAWMHWVRQAPGKGLEWVAQIKAKSNNYATYYAESVKGRFTISRDTSKNSLYLQMNSLKTEDTAVYYCRYVHYGAYYGVDAWGQGTTVTVSSASTKGPSVFPLAPSSKSTSGGTAALGCLVKDYFPEPVTVSWNSGALTSGVHTFPAVLQSSGLYSLSSVVTVPSSSLGTQTYICNVNHKPSNTKVDKKVEPKSCDKTHTCPPCPAPEAAGGPSVFLFPPKPKDTLMISRTPEVTCVVVDVSHEDPEVKFNWYVDGVEVHNAKTKPREEQYASTYRVVSVLTVLHQDWLNGKEYKCKVSNKALPAPIEKTISKAKGQPREPQVYTLPPSRCELTKNQVSLSCAVKGFYPSDIAVEWESNGQPENNYKTTPPVLDSDGSFFLVSKLTVDKSRWQQGNVFSCSVMHEALHNHYTQKSLSLSPDYKDDDDK
chain: EPKSSDKTHTCPPCPAPELLGGPSVFLFPPKPKDTLMISRTPEVTCVVVDVSHEDPEVKFNWYVDGVEVHNAKTKPREEQYNSTYRVVSVLTVLHQDWLNGKEYKCKVSNKALPAPIEKTISKAKGQPREPQVCTLPPSRDELTKNQVSLWCLVKGFYPSDIAVEWESNGQPENNYKTTPPVLDSDGSFFLYSKLTVDKSRWQQGNVFSCSVMHEALHNRYTQKSLSLSP
light: DIVMTQSPLSLPVTPGEPASISCRSSQSLVHSNRNTYLHWYQQKPGQAPRLLIYKVSNRFSGVPDRFSGSGSGTDFTLKISRVEAEDVGVYYCGQGTQVPYTFGQGTKLEIKRTVAAPSVFIFPPSDEQLKSGTASVVCLLNNFYPREAKVQWKVDNALQSGNSQESVTEQDSKDSTYSLSSTLTLSKADYEKHKVYACEVTHQGLSSPVTKSFNRGEC
B2: CE115HA000 G98H one-arm antibody (antibody, human IgG1, kappa, L234A L235A, N297A, name in Kabat numbering)
heavy: B1 heavy with T76D, G104H
chain: B1 chain
light: B1 light
B3: CE115HA000 G98D one-arm antibody (antibody, human IgG1, kappa, L234A L235A, N297A, name in Kabat numbering)
heavy: B1 heavy with T76D, G104D
chain: B1 chain
light: B1 light
B4: CE115HA000 D101L one-arm antibody (antibody, human IgG1, kappa, L234A L235A, N297A, name in Kabat numbering)
heavy: B1 heavy with T76D, D110L
chain: B1 chain
light: B1 light
B5: CE115HA000 D101N one-arm antibody (antibody, human IgG1, kappa, L234A L235A, N297A, name in Kabat numbering)
heavy: B1 heavy with T76D, D110N
chain: B1 chain
light: B1 light
B6: CE115HA000 E61Q one-arm antibody (antibody, human IgG1, kappa, L234A L235A, N297A, name in Kabat numbering)
heavy: B1 heavy with E64Q, T76D
chain: B1 chain
light: B1 light
B7: CE115HA000 D101Y one-arm antibody (antibody, human IgG1, kappa, L234A L235A, N297A, name in Kabat numbering)
heavy: B1 heavy with T76D, D110Y
chain: B1 chain
light: B1 light
B8: CE115HA000 D101V one-arm antibody (antibody, human IgG1, kappa, L234A L235A, N297A, name in Kabat numbering)
heavy: B1 heavy with T76D, D110V
chain: B1 chain
light: B1 light
B9: CE115HA000 E61P one-arm antibody (antibody, human IgG1, kappa, L234A L235A, N297A, name in Kabat numbering)
heavy: B1 heavy with E64P, T76D
chain: B1 chain
light: B1 light
B10: CE115HA000 G65E one-arm antibody (antibody, human IgG1, kappa, L234A L235A, N297A, name in Kabat numbering)
heavy: B1 heavy with G68E, T76D
chain: B1 chain
light: B1 light
B11: CE115HA000 D101A one-arm antibody (antibody, human IgG1, kappa, L234A L235A, N297A, name in Kabat numbering)
heavy: B1 heavy with T76D, D110A
chain: B1 chain
light: B1 light
B12: CE115HA000 D101K one-arm antibody (antibody, human IgG1, kappa, L234A L235A, N297A, name in Kabat numbering)
heavy: B1 heavy with T76D, D110K
chain: B1 chain
light: B1 light
B13: CE115HA000 D101P one-arm antibody (antibody, human IgG1, kappa, L234A L235A, N297A, name in Kabat numbering)
heavy: B1 heavy with T76D, D110P
chain: B1 chain
light: B1 light
B14: CE115HA000 D101R one-arm antibody (antibody, human IgG1, kappa, L234A L235A, N297A, name in Kabat numbering)
heavy: B1 heavy with T76D, D110R
chain: B1 chain
light: B1 light
B15: CE115HA000 D101F one-arm antibody (antibody, human IgG1, kappa, L234A L235A, N297A, name in Kabat numbering)
heavy: B1 heavy with T76D, D110F
chain: B1 chain
light: B1 light
B16: CE115HA000 D101T one-arm antibody (antibody, human IgG1, kappa, L234A L235A, N297A, name in Kabat numbering)
heavy: B1 heavy with T76D, D110T
chain: B1 chain
light: B1 light
B17: CE115HA000 D101I one-arm antibody (antibody, human IgG1, kappa, L234A L235A, N297A, name in Kabat numbering)
heavy: B1 heavy with T76D, D110I
chain: B1 chain
light: B1 light
B18: CE115HA000 G98P one-arm antibody (antibody, human IgG1, kappa, L234A L235A, N297A, name in Kabat numbering)
heavy: B1 heavy with T76D, G104P
chain: B1 chain
light: B1 light
B19: CE115HA000 G98Q one-arm antibody (antibody, human IgG1, kappa, L234A L235A, N297A, name in Kabat numbering)
heavy: B1 heavy with T76D, G104Q
chain: B1 chain
light: B1 light
B20: CE115HA000 G98R one-arm antibody (antibody, human IgG1, kappa, L234A L235A, N297A, name in Kabat numbering)
heavy: B1 heavy with T76D, G104R
chain: B1 chain
light: B1 light
B21: CE115HA000 D101H one-arm antibody (antibody, human IgG1, kappa, L234A L235A, N297A, name in Kabat numbering)
heavy: B1 heavy with T76D, D110H
chain: B1 chain
light: B1 light
B22: CE115HA000 G98K one-arm antibody (antibody, human IgG1, kappa, L234A L235A, N297A, name in Kabat numbering)
heavy: B1 heavy with T76D, G104K
chain: B1 chain
light: B1 light
B23: CE115HA000 D101Q one-arm antibody (antibody, human IgG1, kappa, L234A L235A, N297A, name in Kabat numbering)
heavy: B1 heavy with T76D, D110Q
chain: B1 chain
light: B1 light
B24: CE115HA000 G98A one-arm antibody (antibody, human IgG1, kappa, L234A L235A, N297A, name in Kabat numbering)
heavy: B1 heavy with T76D, G104A
chain: B1 chain
light: B1 light
B25: CE115HA000 D101M one-arm antibody (antibody, human IgG1, kappa, L234A L235A, N297A, name in Kabat numbering)
heavy: B1 heavy with T76D, D110M
chain: B1 chain
light: B1 light
B26: CE115HA000 D101G one-arm antibody (antibody, human IgG1, kappa, L234A L235A, N297A, name in Kabat numbering)
heavy: B1 heavy with T76D, D110G
chain: B1 chain
light: B1 light
B27: CE115HA000 G98S one-arm antibody (antibody, human IgG1, kappa, L234A L235A, N297A, name in Kabat numbering)
heavy: B1 heavy with T76D, G104S
chain: B1 chain
light: B1 light
B28: CE115HA000 E61D one-arm antibody (antibody, human IgG1, kappa, L234A L235A, N297A, name in Kabat numbering)
heavy: B1 heavy with E64D, T76D
chain: B1 chain
light: B1 light
B29: CE115HA000 F29V one-arm antibody (antibody, human IgG1, kappa, L234A L235A, N297A, name in Kabat numbering)
heavy: B1 heavy with F29V, T76D
chain: B1 chain
light: B1 light
B30: CE115HA000 E61A one-arm antibody (antibody, human IgG1, kappa, L234A L235A, N297A, name in Kabat numbering)
heavy: B1 heavy with E64A, T76D
chain: B1 chain
light: B1 light
B31: CE115HA000 G65D one-arm antibody (antibody, human IgG1, kappa, L234A L235A, N297A, name in Kabat numbering)
heavy: B1 heavy with G68D, T76D
chain: B1 chain
light: B1 light
B32: CE115HA000 D101S one-arm antibody (antibody, human IgG1, kappa, L234A L235A, N297A, name in Kabat numbering)
heavy: B1 heavy with T76D, D110S
chain: B1 chain
light: B1 light

Target: T1, CD3ε homodimer protein (human, UniProt P07766 23-126, limits assumed, sulfo-tag or biotin label in the ECL assays; amine-coupled to the chip in SPR)
T1 construct: also called human CD3ε homodimer protein; CD3 (CD3ε)
Assay: SPR Biacore T200; CD3ε homodimer on CM4 chip;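 note: Single-residue variant antibodies injected as analyte over CD3ε homodimer immobilized by amine coupling, run at 25 °C in HBS-EP+ buffer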

T1 sequence (P07766 23-126 limits assumed): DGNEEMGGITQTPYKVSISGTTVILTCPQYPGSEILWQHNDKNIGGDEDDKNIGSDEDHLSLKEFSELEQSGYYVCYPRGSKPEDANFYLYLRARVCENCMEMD

Row | ratio of amounts bound Z=Y/X (altered form / CE115HA000) | Binder
1 | 0.63 | B1
2 | 1.58 | B2
3 | 0.26 | B3
4 | 0.62 | B4
5 | 2.02 | B5
6 | 1.07 | B6
7 | 0.49 | B7
8 | 1.33 | B8
9 | 1.07 | B9
10 | 0.78 | B10
11 | 1.26 | B11
12 | 0.63 | B12
13 | 0.2 | B13
14 | 0.24 | B14
15 | 0.75 | B15
16 | 0.79 | B16

Row | ratio of amounts bound Z=Y/X (altered form / CE115HA000) | Binder
17 | 1.18 | B17
18 | 1.02 | B18
19 | 1.22 | B19
20 | 2.96 | B20
21 | 1.21 | B21
22 | 2.83 | B22
23 | 2.35 | B23
24 | 1.1 | B24
25 | 1.2 | B25
26 | 1.38 | B26
27 | 1.01 | B27
28 | 0.91 | B28
29 | 0.36 | B29
30 | 1.09 | B30
31 | 0.76 | B31
32 | 1.16 | B32
